Data set [1] addresses T1, Zika virus envelope protein (Zika virus, UniProt A0A024B7W1 291-694). Kind of data set: bead-based fluorescence binding assay; protein on magnetic beads; Bead assay: room temperature, 1 h, envelope protein 0.15 mg/mL on magnetic beads, aptamer 3 nM-1 uM, DIW wash; binding buffer not stated (folding predicted at 140 mM Na+, 5 mM Mg2+). Sensor: ACEF 10 min, read in 1 M KCl pH 7. The conditions noted are these: protein: commercial; label: 5' 6-FAM; stem-loops (mfold prediction).

In another data set the target is myoglobin (horse, UniProt P68082 2-154). Kind of data set: pulse voltammetry biosensor; no significant reactivity; Bead assay: room temperature, 1 h, envelope protein 0.15 mg/mL on magnetic beads, aptamer 3 nM-1 uM, DIW wash; binding buffer not stated (folding predicted at 140 mM Na+, 5 mM Mg2+). Sensor: ACEF 10 min, read in 1 M KCl pH 7. The conditions noted are these: protein: commercial; stem-loops (mfold prediction).
myoglobin, sequence (P68082 2-154): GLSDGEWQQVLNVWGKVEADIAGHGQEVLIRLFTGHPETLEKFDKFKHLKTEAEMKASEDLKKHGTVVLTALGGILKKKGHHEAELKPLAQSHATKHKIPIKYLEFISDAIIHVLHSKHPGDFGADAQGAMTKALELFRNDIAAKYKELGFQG

The next data set has as its target hemoglobin (horse, UniProt P01958;P02062 2-142;1-146). The description is as above. The conditions noted are these: protein: commercial; chain copies: 2;2; stem-loops (mfold prediction).
The target in the next data set is fibrinogen (UniProt P02671;P02675;P02679 20-629;31-491;27-453). The data set is described as above. The conditions noted are these: protein: commercial; chain copies: 2;2;2; stem-loops (mfold prediction).
fibrinogen, sequence (P02671 20-629, chain 1 of 3): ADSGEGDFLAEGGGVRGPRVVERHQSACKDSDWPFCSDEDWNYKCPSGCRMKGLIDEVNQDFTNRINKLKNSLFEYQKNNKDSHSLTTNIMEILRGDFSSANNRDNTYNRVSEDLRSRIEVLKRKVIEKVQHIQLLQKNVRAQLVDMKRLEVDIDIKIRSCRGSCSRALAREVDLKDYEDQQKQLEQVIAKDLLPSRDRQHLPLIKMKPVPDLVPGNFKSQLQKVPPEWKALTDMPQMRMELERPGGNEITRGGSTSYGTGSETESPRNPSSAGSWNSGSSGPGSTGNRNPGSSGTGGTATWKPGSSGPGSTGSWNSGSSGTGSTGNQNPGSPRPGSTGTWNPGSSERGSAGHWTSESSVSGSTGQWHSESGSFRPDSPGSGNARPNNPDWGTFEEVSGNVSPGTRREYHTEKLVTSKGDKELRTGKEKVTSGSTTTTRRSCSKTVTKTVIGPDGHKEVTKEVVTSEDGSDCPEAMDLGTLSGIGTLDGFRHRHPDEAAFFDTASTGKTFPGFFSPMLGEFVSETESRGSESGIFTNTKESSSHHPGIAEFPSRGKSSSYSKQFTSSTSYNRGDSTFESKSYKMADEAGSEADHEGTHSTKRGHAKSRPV
fibrinogen, sequence (P02675 31-491, chain 2 of 3): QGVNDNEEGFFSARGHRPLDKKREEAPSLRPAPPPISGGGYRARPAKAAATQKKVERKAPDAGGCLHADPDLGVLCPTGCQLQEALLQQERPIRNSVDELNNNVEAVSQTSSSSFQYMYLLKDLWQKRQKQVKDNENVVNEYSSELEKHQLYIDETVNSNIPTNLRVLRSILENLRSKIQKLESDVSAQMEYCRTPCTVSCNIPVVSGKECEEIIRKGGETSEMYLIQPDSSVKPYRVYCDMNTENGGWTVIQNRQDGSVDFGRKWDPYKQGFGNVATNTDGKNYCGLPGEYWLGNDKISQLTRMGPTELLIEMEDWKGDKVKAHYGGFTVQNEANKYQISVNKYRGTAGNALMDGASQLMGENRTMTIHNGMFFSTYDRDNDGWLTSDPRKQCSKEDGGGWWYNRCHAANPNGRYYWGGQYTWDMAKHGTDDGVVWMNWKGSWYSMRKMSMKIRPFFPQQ
fibrinogen, sequence (P02679 27-453, chain 3 of 3): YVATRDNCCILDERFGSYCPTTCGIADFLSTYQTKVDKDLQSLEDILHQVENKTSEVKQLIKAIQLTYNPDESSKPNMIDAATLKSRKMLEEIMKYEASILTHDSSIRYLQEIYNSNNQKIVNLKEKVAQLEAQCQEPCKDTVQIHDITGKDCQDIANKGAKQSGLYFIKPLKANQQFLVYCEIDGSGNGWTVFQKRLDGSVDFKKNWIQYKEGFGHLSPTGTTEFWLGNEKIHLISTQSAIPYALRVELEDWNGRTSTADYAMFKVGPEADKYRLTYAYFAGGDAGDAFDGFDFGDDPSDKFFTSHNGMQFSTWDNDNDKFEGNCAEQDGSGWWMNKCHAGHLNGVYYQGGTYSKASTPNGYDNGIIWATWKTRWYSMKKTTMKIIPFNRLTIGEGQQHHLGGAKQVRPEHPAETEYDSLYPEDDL
In data set [2] the target is T1, Zika virus envelope protein. As to the kind of experiment: pulse voltammetry biosensor; ACEF; read in 1 M KCl pH 7; LOD 90.1 pM; Bead assay: room temperature, 1 h, envelope protein 0.15 mg/mL on magnetic beads, aptamer 3 nM-1 uM, DIW wash; binding buffer not stated (folding predicted at 140 mM Na+, 5 mM Mg2+). Sensor: ACEF 10 min, read in 1 M KCl pH 7. The conditions noted are these: protein: commercial; stem-loops (mfold prediction).

Data set [3] shares this target. As to the kind of experiment: EMSA (8% TBE-PAGE); Kd slightly lower than truncated aptamer, value not given; […], aptamer 3 nM-1 uM, […]; binding buffer not stated ([…], read in 1 M KCl pH 7. The conditions noted are these: protein: commercial; stem-loops (mfold prediction).

hemoglobin, sequence (P01958 2-142, chain 1 of 2): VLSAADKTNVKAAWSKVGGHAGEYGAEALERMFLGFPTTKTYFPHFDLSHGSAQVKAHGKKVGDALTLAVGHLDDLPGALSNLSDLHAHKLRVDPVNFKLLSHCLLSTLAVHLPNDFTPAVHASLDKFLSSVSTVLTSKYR
hemoglobin, sequence (P02062 whole entry, chain 2 of 2): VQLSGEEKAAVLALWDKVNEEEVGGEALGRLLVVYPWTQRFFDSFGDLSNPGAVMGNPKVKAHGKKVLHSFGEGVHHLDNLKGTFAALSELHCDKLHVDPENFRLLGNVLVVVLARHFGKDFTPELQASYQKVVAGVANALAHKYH

Broadly, the Kd is the constant that tells how readily two partners part at equilibrium. In the case of TGCGCACTGAACGATCCTGCGTCAAGTTCAAGGTTGTG (structured_DNA) [truncated Zika aptamer (T-ZV apt), 5'-FAM], the dissociation constant (Kd) in data set [1] is 333 ± 60.3 nM.

On to TGCGCACTGAACGATCCTGCGTCAAGTTCAAGGTTGTG (structured_DNA, thiol (SH), end not stated) [truncated Zika aptamer (T-ZV apt), thiolated], for which the binding result with myoglobin is reported as “no binding”; with hemoglobin, “no binding”; with fibrinogen, “no binding”; in data set [2], “binds”.

B1: original Zika envelope aptamer (ZV apt) (structured_DNA)
DNA: TGACACCGTACCTGCTCTAGTGCGCACTGAACGATCCTGCGTCAAGTTCAAGGTTGTGAAGCACGCCAAGGGACTAT
Regarding B1, in data set [3], the binding result is reported as “binds”.

Source of the values: publication PMC10054023, “Fabrication of Rapid Electrical Pulse-Based Biosensor Consisting of Truncated DNA Aptamer for Zika Virus Envelope Protein Detection in Clinical Samples”.
